According to patent US20170022287A1 (Chugai, published 2017):

Experiments:
[1] = biological target: T1, mouse Fcγ receptor II extracellular domain with C-terminal His tag (mouse, UniProt P08101 30-210); assay: SPR (Biacore); against naturally-occurring mIgG1 (H237-mIgG1/MRAL-k0)
T1 construct: extracellular domain; also called mFcγRII; mFcgRII; not shown: His tag at the C terminus
T1 sequence (looked up): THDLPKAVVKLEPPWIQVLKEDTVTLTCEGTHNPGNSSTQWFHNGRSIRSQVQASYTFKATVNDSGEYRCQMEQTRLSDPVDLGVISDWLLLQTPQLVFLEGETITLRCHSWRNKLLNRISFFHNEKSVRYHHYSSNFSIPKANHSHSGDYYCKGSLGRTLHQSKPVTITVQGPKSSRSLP

[2] = biological target: T2, mouse Fcγ receptor III extracellular domain with C-terminal His tag (mouse, UniProt P08508 31-215); assay: as above
T2 construct: extracellular domain; also called mFcγRIII; not shown: His tag at the C terminus
T2 sequence (looked up): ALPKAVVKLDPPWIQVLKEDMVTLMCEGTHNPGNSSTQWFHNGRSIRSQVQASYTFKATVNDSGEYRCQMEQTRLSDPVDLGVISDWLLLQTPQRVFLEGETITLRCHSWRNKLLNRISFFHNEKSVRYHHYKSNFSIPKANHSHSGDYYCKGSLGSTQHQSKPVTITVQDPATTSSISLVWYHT

[3] = biological target: T1, mouse Fcγ receptor II extracellular …; assay: SPR (Biacore) kinetics, antibody captured on Protein L, mFcγR as analyte, 1:1 Langmuir model
Procedure: (§1) The ion exchange column chromatography of step 1 was carried out using Q Sepharose HP for mFcγRI, using SP Sepharose FF for mFcγRII and mFcγRIV, and using SP Sepharose HP for mFcγRIII. While the solvent used in step 3 and the subsequent step was D-PBS(−), D-PBS(−) containing 0.1 M Arginine was used for mFcγRIII. The absorbance at 280 nm was measured for the purified proteins using a spectrophotometer. […] The interaction between each modified antibody and the Fcγ receptor prepared as mentioned above was analyzed using Biacore T100 (GE Healthcare), Biacore T200 (GE Healthcare), Biacore A100, and Biacore 4000. The running buffer used was HBS-EP+(GE Healthcare) and the measurement temperature was set to 25° C. The chip used was: a Series S Sensor Chip CM5 (GE Healthcare) or Series S Sensor Chip CM4 (GE Healthcare) to which Protein L (ACTIGEN or BioVision) was immobilized by the amine coupling method. Antibodies of interest were captured onto these sensor chips, and mFcγR diluted with the running buffer was allowed to interact with them. The amount bound by the antibodies was measured and compared between the antibodies. However, since the amount of mFcγR bound depends on the amount of the captured antibody, the comparison was carried out on corrected values obtained by dividing the amount of bound mFcγR by the amount of each antibody captured. Furthermore, 10 mM glycine-HCl, pH 1.5 was reacted to wash out the captured antibody from the sensor chips, and the sensor chip was regenerated and used repeatedly. Kinetic analyses for calculating the KD values of each altered antibody to FcγR were performed according to the method below. First, antibodies of interest were captured onto the above-mentioned sensor chips, and mFcγR diluted with the running buffer was allowed to interact with them. […] From those values, the dissociation constant KD (mol/L) was determined.

[4] = biological target: T2, mouse Fcγ receptor III extracellular …; assay: as above
Procedure: as §1

Relative binding activity [1]: 622 fold (mIgG1 = 1) | Relative binding activity [2]: 10.9 fold (mIgG1 = 1) | Kd [3]: 0.338 nM | Kd [4]: 25.8 nM
B1: H237-MB492/MRAL-k0 (antibody, mouse IgG1, kappa)
heavy: QVQLQESGPGLVKPSETLSLTCAVSGHSISHDHAWSWVRQPPGEGLEWIGFISYSGITNYNPSLQGRVTISRDNSKNTLYLQMNSLRAEDTAVYYCARSLARTTAMDYWGEGTLVTVSSAKTTPPSVYPLAPGSAAQTNSMVTLGCLVKGYFPEPVTVTWNSGSLSSGVHTFPAVLQSDLYTLSSSVTVPSSTWPSETVTCNVAHPASSTKVDKKIVPRDCGCKPCICEPNEVEDVFIFPPKPKDVLTITLTPKVTCVVVDISKDDPEVQFSWFVDDVEVHTAQTQPREEQFNSTFRSVSELPIMHQDWLNGKEFKCRVDSAAFPAPIEKTISKTKGRPKAPQVYTIPPPKEQMAKDKVSLTCMITDFFPEDITVEWQWNGQPAENYKNTQPIMDTDGSYFVYSKLNVQKSNWEAGNTFTCSVLHEGLHNHHTEKSLSHSPGK
light: not shown
notes: Mouse IgG1 constant region variant MB492 (T230E, V231P, P232N, S238E, S239D, N324D, as described for 1D8VH-MB492); copies: 2 + 2
